Experimental data published in patent publication US20140162285A1, “Methods of Modulating Vesicular Trafficking” (The General Hospital Corporation, priority 2009, published 2014).

Molecular target: T1, ARNO CC-domain (Homo sapiens, UniProt Q99418)
T1 construct: ii) 1-60aa, coiled-coil (CC) domain; made in house; host or cells: E. coli BL21(DE3)
T1 sequence (Q99418 1-60): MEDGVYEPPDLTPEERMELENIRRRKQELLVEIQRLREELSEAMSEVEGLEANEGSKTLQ
Test: GST pull-down of in vitro translated a2N with ARNO CC-domain
Format: binding
Conditions: Western blot anti-a2N
Procedure: The purified recombinant GST-ARNO(wt) and GST-tagged ARNO domain constructs ([…]) were incubated with 10 μl of in vitro translated 6His-a2N recombinant protein at 4° C. for 2 hours in 500 μl of binding buffer (10 mM HEPES, 1 mM EDTA, 1 mM DTT, 100 mM NaCl, 10% glycerol, 0.1% NP-40) with gentle rotation. Then the interacting recombinant proteins were immobilized on glutathione beads by incubation with 50 μl of 50% glutathione Sepharose 4B slurry for 2 hours at 4° C. The beads were collected by centrifugation and washed 5 times with 500 μl ice-cold binding buffer. Interacting proteins were eluted by boiling in SDS-PAGE sample buffer for 10 min at 95° C., resolved by SDS-PAGE and analyzed by Western blotting using polyclonal anti-a2N antibodies. […]
To examine the ability of these well-defined and functionally distinct domains of ARNO to interact with a2N1-402, full-length ARNO(wt) and its four domains were cloned separately for bacterial expression of recombinant proteins (FIG. 3). […] Interacting proteins were detected by western blot analysis with a2-specific antibodies as described above.

B1: a2N: recombinant N-terminal cytosolic tail, amino acid residues 1-402 of mouse V-ATPase a2-subunit (protein)
chain: MGSLFRSESMCLAQLFLQSGTAYECLSALGEKGLVQFRDLNQNVSSFQRKFVGEVKRCEELERILVYLVQEITRADIPLPEGEASPPAPPLKHVLEMQEQLQKLEVELREVTKNKEKLRKNLLELVEYTHMLRVTKTFLKRNVEFEPTYEEFPALENDSLLDYSCMQRLGAKLGFVSGLIQQGRVEAFERMLWRACKGYTIVTYAELDECLEDPETGEVIKWYVFLISFWGEQIGHKVKKICDCYHCHIYPYPNTAEERREIQEGLNTRIQDLYTVLHKTEDYLRQVLCKAAESVCSRVVQVRKMKAIYHMLNMCSFDVTNKCLIAEVWCPEVDLPGLRRALEEGSRESGATIPSFMNTIPTKETPPTLIRTNKFTEGFQNIVDAYGVGSYREVNPALFTII
modifications: left off: small tags and cut ends
notes: recombinant N-terminal cytosolic tail, amino acid residues 1-402 of mouse V-ATPase a2-subunit
interaction of a2N with ARNO CC-domain: no interaction
